Assay results from doi:10.1101/2023.08.11.553006, “Short oligomers rather than rings of human RAD52 promote single-strand annealing” (bioRxiv, 2023).
Several values for one entry are separate records, joined by “and”; a condition that tells them apart may be missing. Identical values can stand only once.

T1: RAD52(209) (Homo sapiens, UniProt P43351 1-209)
T1 sequence: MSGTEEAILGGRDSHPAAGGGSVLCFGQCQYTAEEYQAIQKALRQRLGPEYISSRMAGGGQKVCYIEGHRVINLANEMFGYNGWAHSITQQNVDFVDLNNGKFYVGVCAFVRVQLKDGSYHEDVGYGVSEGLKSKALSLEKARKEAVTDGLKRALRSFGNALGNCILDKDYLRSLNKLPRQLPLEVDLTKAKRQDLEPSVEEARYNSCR


What was measured:
RAD52(209) = target: T1, RAD52(209); assay: EMSA (native annealing gel); 50-200 nM protein: annealed product runs at protein-free level; at 1 uM a ring band contains both strands (annealed or not unclear); EMSA: 25 mM Tris-acetate pH 7.5, 2 mM Mg(OAc)2, 1 mM DTT, 10 nM ssDNA, 25 C 10 min or 37 C 5 min; mass photometry: 20 mM Tris-HCl pH 7.5, 50 mM NaCl; settings: protein: recombinant; tags: His tag (pET-15b, Ni-NTA); chain copies: 11; label: 3'-ALEXA488 (Methods: ATTO488) on 48 nt; 3'-ATTO680 on 60 nt; 3' overhang 12 nt (T12) on strand 2
[1] = target: the molecule itself; assay: mass photometry; label-free single molecules landing on glass slides; Buffer 1 (Tris-HCl 20 mM, NaCl 50 mM, pH 7.5); nanomolar protein concentrations, increasing series; protomers to rings

Row | Binder | binding result (RAD52(209)) | stoichiometry N [1]
1 | 48/60 nt annealed product (dsDNA) DNA 1: GCAATTAAGCTCTAAGCCATCCGCAAAAATGACCTCTTATCAAAAGGA DNA 2: TCCTTTTGATAAGAGGTCATTTTTGCGGATGGCTTAGAGCTTAATTGCTTTTTTTTTTTT | no binding | –
2 | full-length human RAD52 (natural protein, UniProt P43351 1-418, looked up, RAD52, human, full length; expected monomer molecular weight printed as 48.4 kDa; No removal of the tag is described; Plasmid was a gift from W. Kagawa; source: E. coli BL21(DE3) with pRARE, purified (His-trap Ni-NTA, Hiload 16/600 superdex)) MSGTEEAILGGRDSHPAAGGGSVLCFGQCQYTAEEYQAIQKALRQRLGPEYISSRMAGGGQKVCYIEGHRVINLANEMFGYNGWAHSITQQNVDFVDLNNGKFYVGVCAFVRVQLKDGSYHEDVGYGVSEGLKSKALSLEKARKEAVTDGLKRALRSFGNALGNCILDKDYLRSLNKLPRQLPLEVDLTKAKRQDLEPSVEEARYNSCRPNMALGHPQLQQVTSPSRPSHAVIPADQDCSSRSLSSSAVESEATHQRKLRQKQLQQQFRERMEKQQVRVSTPSAEKSEAAPPAPPVTHSTPVTVSEPLLEKDFLAGVTQELIKTLEDNSEKWAVTPDAGDGVVKPSSRADPAQTSDTLALNNQMVTQNRTPHSVCHQKPQAKSGSWDLQTYSADQRTTGNWESHRKSQDMKKRKYDPS | – | 7 protomers per ring to 13 protomers per ring (2×) and 10 protomers per ring and 10.6 protomers per ring
3 | truncated RAD52(209) (domain or fragment, human, UniProt P43351 1-209, looked up, expected monomer molecular weight printed as 25.3 kDa; No removal of the tag is described; Plasmid was a gift from S.C; West; also called C-terminally truncated RAD52; source: E. coli BL21(DE3) with pRARE, purified (His-trap Ni-NTA, Hiload 16/600 superdex)) MSGTEEAILGGRDSHPAAGGGSVLCFGQCQYTAEEYQAIQKALRQRLGPEYISSRMAGGGQKVCYIEGHRVINLANEMFGYNGWAHSITQQNVDFVDLNNGKFYVGVCAFVRVQLKDGSYHEDVGYGVSEGLKSKALSLEKARKEAVTDGLKRALRSFGNALGNCILDKDYLRSLNKLPRQLPLEVDLTKAKRQDLEPSVEEARYNSCR | – | 11 protomers per ring
